Experimental data reported in patent publication US20220098319A1 (SHANGHAI PHARMAEXPLORER, published 2022).

B1: mAb034 (clone 60G1C8), murine anti-CD73 antibody (antibody, V domains shown)
VH: DVQLQESGPGLVKPSQSLSLTCSVTGYSITSRYYWNWIRQFPGNKLEWMGYMTYDGTNNYNPSLTNRISITRDTSKNQFFLKLNSVTAEDTATYFCARGGWDPFDYWGQGTTLTVSS
VL: DIQMTQSPAALSASVGETVTITCRASDNIYSYLAWYQQKQGKCPQLLVKNAKTLAEGVPSRFSGSGSGTQFSLRINSLQPDDFGTYYCQHYYGTPLTFGAGTKLELK
notes: Purified from hybridoma supernatant
B2: mAb020 (clone 24D6B4), murine anti-CD73 antibody (antibody, V domains shown)
VH: EVQLQQSGPELVKPGASVKIPCKASGYTFTDYNMDWVKQRHGKSLEWIGDINPNNGGTVYNQKFKGKATLTVDKSSNTAYMELRSLTSEDTAVYYCARISGTGYWYFDVWGTGTTVTVSS
VL: DIQMTQSPASLSVSVGETVTITCRASENIYSNLAWYQQKQGKSPQLLVYGATNLADGVPSRFSGSDSGTQYSLKINSLQSEDFGSYYCQHFWGTPWTFGGGTKLEIK
notes: as for B1
B3: mAb042 (clone 77B9A3), murine anti-CD73 antibody (antibody, V domains shown)
VH: QVQLQQSGAGLVKPGASVKLSCKASGYTFTNYWMHWVKQRPGQGLEWIGMIHPNSGSTNNNEKFKNKATLTVDKSSNTAYMQLSSLTSEDSAVYYCARFFFGGYPHYYALDYWGQGTSVTVSS
VL: DIVMTQSQKFMSTTVGDRVSITCKASQNVGTAVAWYQQKPGQSPKLLIYSASDRYTGVPDRLTGSGSGTDFTLTISNVQSEDLADYFCQQYSSFPLFTFGSGTKLVIQ
notes: as for B1
B4: mAb044 (clone 80H7D6), murine anti-CD73 antibody (antibody, V domains shown)
VH: EVKLVESGGGLVQPGGSLRLSCAASGFTFTDYYMSWVRQPPGKALEWLGFIRNKADGSTTEYSASVKGRFTISRDNSQSILYLQMNALRPEDSATYYCTRSPIYFDNWYFDVWGTGTTVTVSS
VL: DIVMSQSPSSLAVSVGEKVTMTCKSSQSLLYSNNQKNYLAWYQQKPGQSPKLLIYWASTRESGVPDRFTGSGSGTDFTLTLSSVKAEDLAVYYCQQYYSYPFTFGSGTKLEIK
notes: as for B1
B5: mAb065 (clone 125A4E10), murine anti-CD73 antibody (antibody, V domains shown)
VH: EVQLQQSGPELVKPGASVKISCKASGYTFTDYYMNWVKQSHGKSLEWIGNINPNNGDTNYNQKFKGKATLTVDKSSSTASMELRSLTSEDSAVYYCANSGYYYFDYWGQGTTLTVSS
VL: DIVMTQSPSSLTVTAGEKVTMSCKSSQSLLNSGNQKNYLTWYQQKPGQPPKVLIYWASTRESGVPDRFTGSGSGTDFTLTISSVQAEDLAVYYCQNDYSYPPTFGGGTNLEIK
notes: as for B1
B6: mAb030 (clone 42A5A7), murine anti-CD73 antibody (antibody, V domains shown)
VH: DIQLQESGPGLVKPSQSLSLTCSVTGYSITSRYYWNWIRQFPGNKLEWMGYITYDDNNNYNPSLKNRISITRDTSKNQFFLKLNSVTPEDTATYYCARGGWDPFLYWGQGTLVTVSA
VL: DIQMTQSPASLSASVGETVTITCRASDNIYSYLAWYQQKQGKSLQLLVDSAKNLGEGVPSRFSGSGSGTQFYLKINSLQPEDFGVYYCQHYYGTPFTFGGGTKLELK
notes: Purified from hybridoma supernatant; also called antibody 030
B7: mAb036 (clone 66H6C12), murine anti-CD73 antibody (antibody, V domains shown)
VH: QVQLQQSGAEVVKPGASVKISCKASGYVFSSYWINWVKQRPGKGLEWIGKIFPGNGDTDYNGNFKGKATLTADKSSSTAYMQLSSLTSEDSAVYFCAGFADWGQGTLVTVSA
VL: DIQMTQSPSSLSASLGERVSLTCRASQDIGERLIWLQQEPDGTFKRLIYATSSLDSGVPKRFSGSSSGSDYSLTISRLESEDFVDYYCLQYASSPYTFGGGTKLEIK
notes: as for B1
B8: mAb038 (clone 69C9E12), murine anti-CD73 antibody (antibody, V domains shown)
VH: QVQLQQPGTELVNPGASVKLSCKASGYTFTSYWMHWVKQRPGQGLEWIGNINPSNGGTHYNEKFNNKATLTVDKSSSTAYMQLSSLTSEDSAVFYCARGDYAYDWYFTVWGTGTTVTVSS
VL: DIVLTQSPASLAVSLGQRAIISCKASQSVSFAGTGLMHWYQQKPGQQPKLLIYRVSNLEAGIPTRFSGSGSRTDFTLNIHPVEEDDAATYYCQQNREFPWTFGGGTKLEIK
notes: as for B1
B9: mAb041 (clone 71E10B3), murine anti-CD73 antibody (antibody, V domains shown)
VH: QVQLQQPGTELVKPGASVKLSCKASGYTFTSYWMHWVKQRPGQGLEWIGNINPSNGGTNYNQKFKSKATLTVDKSSNTASMQLSSLTSEDSAVYYCARGDYGYDWYLDVWGTGTTVTVSS
VL: DIVLTQSPASLAVSLGQRAIISCKASQSVSFAGPSLMHWYQQKPGQQPKLLIYRTSNLEAGVPTRFSGSGSGTDFTLNIHPVEEDDAATYYCQQNREFPWTFGGGTKLEIK
notes: as for B1

What was measured:
[1] = target: T1, human CD73 (full length, on transfected CHOK1 cells) (human, UniProt P21589 27-549); test: FACS on CHOK1-hCD73 cells
T1 construct: whole, on cells; also called CHOK1-hCD73; hCD73
T1 sequence (looked up): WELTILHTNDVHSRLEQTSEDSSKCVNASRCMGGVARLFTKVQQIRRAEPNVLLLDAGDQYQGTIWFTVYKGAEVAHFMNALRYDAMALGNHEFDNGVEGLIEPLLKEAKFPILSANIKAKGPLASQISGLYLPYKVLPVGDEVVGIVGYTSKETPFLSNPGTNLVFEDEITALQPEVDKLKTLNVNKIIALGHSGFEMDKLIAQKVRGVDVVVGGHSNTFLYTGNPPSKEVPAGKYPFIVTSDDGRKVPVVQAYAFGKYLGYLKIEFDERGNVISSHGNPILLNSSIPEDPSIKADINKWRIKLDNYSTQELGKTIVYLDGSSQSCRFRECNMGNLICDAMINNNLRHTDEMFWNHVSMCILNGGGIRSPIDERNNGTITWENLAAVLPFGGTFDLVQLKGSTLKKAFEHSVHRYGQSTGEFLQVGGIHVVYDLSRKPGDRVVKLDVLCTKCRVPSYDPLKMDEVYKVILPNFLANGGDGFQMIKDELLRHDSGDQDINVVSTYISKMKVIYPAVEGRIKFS
Description: The titration binding curve was produced by the following method:
The CHOK1 stable cell line transfected with human CD73 was expanded to a 75-90% confluence in a T-75 cell culture flask. The medium was aspirated, washed 1-2 times with PBS, and then treated with trypsin (Tryple express: Life technology) and cells were collected. The cells were washed with PBS buffer for 1-2 times. After counted, the cells were diluted with PBS to 1-2×10⁶ cells per ml, added with 1% fetal bovine serum (FBS) blocking solution, incubated on ice for 20-30 minutes, and then washed twice with HBSS by centrifugation. The collected cells were suspended with FACS buffer (PBS+2% FBS) to 2×10⁶ cells/ml, added to a 96-well FACS reaction plate at 100 microliters per well, and centrifuged at 300 g for 5 minutes to discard the supernatant. Anti-CD73 antibody was prepared with blocking solution to an initial concentration of 10 ug/ml and serially diluted at 8 points. 100 microliter per well of that antibody sample to be tested were added and incubated at 4° C. for 1-2 hours. […] The plate was washed 2-3 times with FACS buffer by centrifugation, added with 100 μl fixative solution (4% Paraformaldehyde) per well to suspend the cells. 5-10 minutes later, it was washed 1-2 times with FACS buffer by centrifugation. The cells were suspended with 100 microliters of FACS buffer, FACS (FACSCalibur, BD) was used for detection and the results were analyzed, as shown in FIG. 1 and Table 4.

[2] = target: T2, cynomolgus monkey CD73 (on transfected CHOK1 cells) (cynomolgus monkey, UniProt A0A2K5V5U7 27-549); test: FACS on CHOK1-cCD73 cells
T2 construct: whole, on cells; also called CHOK1-cCD73; CHOK1-CCD73
T2 sequence: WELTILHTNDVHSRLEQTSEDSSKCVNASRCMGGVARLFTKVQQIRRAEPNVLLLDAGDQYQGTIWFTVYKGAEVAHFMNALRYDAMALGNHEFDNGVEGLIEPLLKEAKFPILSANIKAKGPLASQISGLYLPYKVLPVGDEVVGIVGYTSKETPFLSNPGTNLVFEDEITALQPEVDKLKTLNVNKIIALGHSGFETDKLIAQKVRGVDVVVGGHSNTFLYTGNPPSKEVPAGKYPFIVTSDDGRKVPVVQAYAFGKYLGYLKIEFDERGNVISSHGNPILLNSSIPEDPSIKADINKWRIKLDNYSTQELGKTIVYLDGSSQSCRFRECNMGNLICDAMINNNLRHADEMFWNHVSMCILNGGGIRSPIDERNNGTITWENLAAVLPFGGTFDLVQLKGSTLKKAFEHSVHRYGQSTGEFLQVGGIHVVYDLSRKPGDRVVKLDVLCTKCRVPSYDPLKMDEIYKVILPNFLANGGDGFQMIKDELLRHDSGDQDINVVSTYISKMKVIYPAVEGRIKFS

[3] = target: T1, human CD73 (full length, on transfected …); test: cell-based or functional assay
[4] = target: T3, murine CD73 (on transfected CHOK1 cells) (mouse, UniProt Q61503 29-551); test: FACS on CHOK1-mCD73 cells
T3 construct: whole, on cells; also called CHOK1-mCD73; mCD73
T3 sequence (looked up): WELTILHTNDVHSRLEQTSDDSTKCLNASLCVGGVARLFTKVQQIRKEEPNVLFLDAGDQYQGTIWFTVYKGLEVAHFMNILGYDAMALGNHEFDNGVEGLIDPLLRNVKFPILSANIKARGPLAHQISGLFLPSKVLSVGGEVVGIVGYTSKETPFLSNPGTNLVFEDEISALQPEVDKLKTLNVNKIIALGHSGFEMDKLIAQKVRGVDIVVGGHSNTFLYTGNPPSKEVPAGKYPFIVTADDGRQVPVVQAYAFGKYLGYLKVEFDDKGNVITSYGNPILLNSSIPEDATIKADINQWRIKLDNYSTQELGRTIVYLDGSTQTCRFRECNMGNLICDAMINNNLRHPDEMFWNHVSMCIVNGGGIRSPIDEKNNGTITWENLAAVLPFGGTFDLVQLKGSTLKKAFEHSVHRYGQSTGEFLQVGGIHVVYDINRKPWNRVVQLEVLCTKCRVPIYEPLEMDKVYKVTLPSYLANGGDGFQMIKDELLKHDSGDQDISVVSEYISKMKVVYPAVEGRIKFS

Binder	EC50 [1]	MAX MFI [1]	EC50 [2]	MAX MFI [2]	Enzyme activity blocking assay, IC50 [3]	Enzyme activity blocking assay, MAX % inhibition [3]	binding result [4]
B1	> 10 nM	5820 MFI	0.2 nM	3210 MFI	0.1 nM	73.7%	no binding (tested: 10 ug/ml initial concentration)
B2	1.8 nM	7540 MFI	3.4 nM	9960 MFI	0.1 nM	63%	no binding (tested: 10 ug/ml initial concentration)
B3	> 10 nM	13900 MFI	3.9 nM	8770 MFI	0.1 nM	47.9%	no binding (tested: 10 ug/ml initial concentration)
B4	1.6 nM	7540 MFI	3.4 nM	12300 MFI	0.5 nM	53.5%	no binding (tested: 10 ug/ml initial concentration)
B5	1.1 nM	4650 MFI	2.5 nM	3250 MFI	0.3 nM	56.4%	no binding (tested: 10 ug/ml initial concentration)
B6	0.9 nM	6440 MFI	0.4 nM	6310 MFI	0.1 nM	74.6%	no binding (tested: 10 ug/ml initial concentration)
B7	0.3 nM	5290 MFI	0.9 nM	7490 MFI	0.2 nM	72.3%	no binding (tested: 10 ug/ml initial concentration)
B8	0.4 nM	5230 MFI	0.3 nM	7400 MFI	1 nM	53.3%	no binding (tested: 10 ug/ml initial concentration)
B9	2.9 nM	8160 MFI	1.9 nM	9570 MFI	4 nM	35.7%	no binding (tested: 10 ug/ml initial concentration)
